{
  "source": "paper PMC8249609",
  "about": "(2021)",
  "biological_target": "T1, AT1 receptor, residues 1-318, with N-terminal Flag-tag and BRIL (Flag-BRIL-AT1) (human (by the printed RefSeq …, UniProt P30556 1-318))",
  "T1 chain": "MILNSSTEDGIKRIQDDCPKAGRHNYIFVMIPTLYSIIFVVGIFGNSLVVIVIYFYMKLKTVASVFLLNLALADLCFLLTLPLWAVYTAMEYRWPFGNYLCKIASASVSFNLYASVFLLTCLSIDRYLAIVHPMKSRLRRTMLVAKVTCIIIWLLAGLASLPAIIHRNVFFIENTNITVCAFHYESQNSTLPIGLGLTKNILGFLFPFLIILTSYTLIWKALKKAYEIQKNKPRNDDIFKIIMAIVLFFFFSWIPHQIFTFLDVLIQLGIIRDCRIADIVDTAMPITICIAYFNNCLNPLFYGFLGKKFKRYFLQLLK",
  "test": "SPR",
  "data": [
    {"binder": "cartilage oligomeric matrix protein with a C-terminal His-tag (COMP-His) (natural protein) not shown", "values": [
      {"measurement": "koff", "result": 0.000389, "unit": "s⁻¹"}
    ]}
  ]
}
